Blank lines part the entries; values can stand above or below the molecule they belong to.
Tests used:
CS-1 tumor (β3-negative) = test: CS-1 tumor growth in CAM; format: in vivo, chick; conditions: 50 μg intravenously after 24 hours of tumor growth; mass after 6 days; versus CTMMP-2(10-1) or PBS
Protocol: A CS-1 tumor (β3-negative) was prepared in a CAM as described above. After 24 hours of tumor growth, a composition of MMP-2 fragment, designated CTMMP-2(2-4) and prepared as described in Example 2A, was administered intraveneously at 50 μg fragment in 100 μl of PBS. After 6 days, the tumor was evaluated for mass. Tumors treated with CTMMP-2(2-4) were reduced in growth rate by about 50% when compared to the growth rate of control tumors treated with CTMMP-2(10-1) or with PBS control.

[1] = tested on: αvβ3-expressing CS-1 cells; test: Inhibition of cell attachment assay; format: cell-based, hamster
Protocol: As one means to determine integrin receptor specificity of the antagonists of this invention, inhibition of cell attachment assays were performed as described below.
Briefly, CS-1 hamster melanoma cells lacking expression of αvβ3 and αvβ5 were first transfected with an plasmid for expressing the […] as previously described by Filardo et al., J. Cell Biol., 130:441-450 (1995). Specificity of potential αvβ3 antagonists was determined by the ability to block the binding of αvβ3-expressing CS-1 cells to VN or laminin coated plates. As an example of a typical assay, the wells were first coated with 10 μg/ml substrate overnight. After rinsing and blocking with 1% heat-denatured BSA in PBS at room temperature for 30 minutes, peptide 85189 (SEQ ID NO: 15) over a concentration range of 0.0001 μM to 100 μM, was separately mixed with CS-1 cells for applying to wells with a cell number of 50, 000 cells/well. After a 10-15 minute incubation at 37° C., the solution containing the cells and peptides was discarded. The number of attached cells was then determined following staining with 1% crystal violet. Cell associated crystal violet was eluted by the addition of 100 microliters (μl) of 10% acetic acid. Cell adhesion was quantified by measuring the optical density of the eluted crystal violet at a wave length of 600 nm.

αvβ3 = target: T1, αvβ3 (Homo sapiens, UniProt P05106+P06756); test: Solid phase receptor binding assay (iodinated MMP-2, labeled fusion proteins)
T1 construct: selected purified integrins were separately immobilized in Titertek microtiter wells
T1 sequence (P06756 31-889 limits assumed): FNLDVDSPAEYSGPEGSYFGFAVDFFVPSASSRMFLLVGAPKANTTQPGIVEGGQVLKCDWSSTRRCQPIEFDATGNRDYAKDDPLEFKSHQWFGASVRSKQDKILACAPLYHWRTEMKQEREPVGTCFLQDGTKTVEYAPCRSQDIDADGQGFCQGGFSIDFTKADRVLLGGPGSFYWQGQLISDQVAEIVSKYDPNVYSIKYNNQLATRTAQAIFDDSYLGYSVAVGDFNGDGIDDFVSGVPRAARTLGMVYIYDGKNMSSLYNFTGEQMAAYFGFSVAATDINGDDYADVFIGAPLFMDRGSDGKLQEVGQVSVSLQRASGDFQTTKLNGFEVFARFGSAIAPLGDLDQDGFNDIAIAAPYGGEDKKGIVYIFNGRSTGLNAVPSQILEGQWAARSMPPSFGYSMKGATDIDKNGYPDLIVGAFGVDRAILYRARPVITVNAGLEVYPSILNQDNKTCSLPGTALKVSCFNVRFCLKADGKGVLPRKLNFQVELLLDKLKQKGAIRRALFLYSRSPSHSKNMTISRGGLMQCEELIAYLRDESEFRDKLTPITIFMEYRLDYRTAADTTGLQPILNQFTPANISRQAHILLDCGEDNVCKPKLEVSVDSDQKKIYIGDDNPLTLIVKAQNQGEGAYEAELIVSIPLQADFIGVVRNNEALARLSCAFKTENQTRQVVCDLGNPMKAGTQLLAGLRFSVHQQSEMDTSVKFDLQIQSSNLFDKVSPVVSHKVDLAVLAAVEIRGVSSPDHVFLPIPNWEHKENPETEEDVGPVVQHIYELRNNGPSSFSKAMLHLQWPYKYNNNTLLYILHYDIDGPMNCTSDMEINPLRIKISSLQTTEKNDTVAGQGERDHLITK
T1 sequence (P06756 891-1048 partner limits assumed): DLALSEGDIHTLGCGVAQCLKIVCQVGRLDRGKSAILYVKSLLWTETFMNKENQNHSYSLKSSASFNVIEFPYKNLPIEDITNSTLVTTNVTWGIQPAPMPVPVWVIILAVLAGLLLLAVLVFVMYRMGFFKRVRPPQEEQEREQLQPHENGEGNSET
T1 sequence (P05106 27-788): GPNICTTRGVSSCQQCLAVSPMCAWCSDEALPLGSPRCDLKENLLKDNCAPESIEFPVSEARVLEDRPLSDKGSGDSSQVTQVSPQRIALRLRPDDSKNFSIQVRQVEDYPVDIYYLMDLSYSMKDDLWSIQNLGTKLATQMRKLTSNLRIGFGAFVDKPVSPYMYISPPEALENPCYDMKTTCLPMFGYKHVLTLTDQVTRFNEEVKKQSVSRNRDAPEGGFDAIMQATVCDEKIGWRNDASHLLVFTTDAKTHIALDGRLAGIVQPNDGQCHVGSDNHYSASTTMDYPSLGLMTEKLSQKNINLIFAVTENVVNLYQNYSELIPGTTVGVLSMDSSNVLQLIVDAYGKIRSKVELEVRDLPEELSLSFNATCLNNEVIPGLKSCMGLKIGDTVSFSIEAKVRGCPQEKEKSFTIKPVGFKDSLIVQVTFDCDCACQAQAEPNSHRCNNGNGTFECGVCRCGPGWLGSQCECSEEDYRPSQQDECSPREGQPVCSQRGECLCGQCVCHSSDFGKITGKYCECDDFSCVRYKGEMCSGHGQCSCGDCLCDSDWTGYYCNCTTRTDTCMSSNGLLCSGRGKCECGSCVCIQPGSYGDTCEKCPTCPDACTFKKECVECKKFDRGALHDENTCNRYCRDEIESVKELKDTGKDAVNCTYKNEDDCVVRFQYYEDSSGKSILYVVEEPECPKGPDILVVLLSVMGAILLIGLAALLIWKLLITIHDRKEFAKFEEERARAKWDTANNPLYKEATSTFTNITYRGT
Protocol: In addition, the ability of peptides to inhibit the binding of either MMP-2 or VN to immobilized αvβ3 was assessed with peptides 69601 (SEQ ID NO: 6) and 66203 (SEQ ID NO: 5).
Specificity of receptor interaction with MMP-2-derived antagonists was confirmed with binding and inhibition of binding solid phase assays. […] In addition, the binding of labeled GST2-4 was competed by unlabeled GST2-4.

[2] = tested on: bFGF-induced angiogenesis; test: CAM assay, growth factor-induced angiogenesis, intravenous application; format: in vivo, chick; conditions: 50 μg fusion protein; after 48 and 72 hours
Protocol: J. Pathol., 79:597 (1975). CAMs were prepared from chick embryos for subsequent induction of angiogenesis and inhibition thereof as described in Examples 4 and 5, respectively. Ten day old chick embryos were obtained from McIntyre Poultry (Lakeside, Calif.) and incubated at 37° C. with 60% humidity. A small hole was made through the shell at the end of the egg directly over the air sac with the use of a small crafts drill (Dremel, Division of Emerson Electric Co. Racine Wis.). A second hole was drilled on the broad side of the egg in a region devoid of embryonic blood vessels determined previously by candling the egg. […] A 1.0 centimeter (cm)×1.0 cm square window was cut through the shell over the dropped CAM with the use of a small model grinding wheel (Dremel). The small window allowed direct access to the underlying CAM.
Angiogenesis was induced by placing a 5 millimeter (mm)×5 mm Whatman filter disk (Whatman Filter paper No.1) saturated with Hanks Balanced Salt Solution (HBSS, GIBCO, Grand Island, N.Y.) or HBSS containing 150 nanograms/milliliter (ng/ml) recombinant basic fibroblast growth factor (bFGF) (Genzyme, Cambridge, Mass.) on the CAM of a 10-day chick embryo in a region devoid of blood vessels and the windows were latter sealed with tape. In other assays, 125 ng/ml bFGF was also effective at inducing blood vessel growth. For assays where inhibition of angiogenesis ws evaluated with intravenous injections of antagonists, angiogenesis was first induced with 1-2 μg/ml bFGF in fibroblast growth medium. Angiogenesis was monitored by photomicroscopy after 72 hours. CAMs were snap frozen, and 6 um cryostat sections were fixed with acetone and stained by immunofluorescence as described in Example 3C with 10 μg/ml of either anti-β1 monoclonal antibody CSAT or LM609.
For CAM preparations in which angiogenesis was induced with 1-2 μg/ml bFGF as previously described, synthetic peptides 69601 (control) and 66203 (SEQ ID NO: 5) were separately intravenously injected into CAM preparations 18 hours after bFGF induction of angiogenesis. The preparations were maintained for an additional 36-40 hours after which time the number of branch points were determined as previously described.
In other assays, peptide 85189 (SEQ ID NO: 15) was evaluated for inhibiting bFGF-induced angiogenesis in the CAM assay over a dosage range of 10 μg/embryo to 300 μg/embryo. The assay was performed as previously described.
In still further assays, peptide 85189 was compared to peptides 69601 and 66203 for anti-angiogenesis activity. The assay was performed as described above with the exception that 50 μg peptide were used.
The effectiveness of the different salt formulations of peptide 85189 was also evaluated in similar bFGF-induced CAM assays. The peptides were used at 100 μg/embryo. […] Untreated CAMs, labeled as “no cytokine” had approximately […] as many branch points as that seen with bFGF treatment, respectively 70 versus 190.
With the above-described protocol, the effect of MMP-2 fusion proteins, CTMMP-2(2-4), also referred to as CTMMP-2(445-467) and CTMMP-2(10-1), also referred to as CTMMP-2(274-637) was also evaluated. The assay was performed as previously described with the exception that 50 μg of fusion protein was administered to the bFGF-treated embryos. The effect of fusion protein treatment was assessed at 24 hours, 48 hours and 72 hours.
The 10 day old CAM preparation was used as previously described in Example 5A. Twenty-four hours after bFGF-induced angiogenesis was initiated, the organic peptidomimetics referred to as compounds 16 (81218), 17 (87292) and 18 (87293) were separately intravenously injected into the CAM preparation in a volume of 100 μl at a concentration of 1 mg/ml (100 μg/embryo) in 20% tetraglycol-PBS at pH 7.0. In parallel assays, compounds 7 (96112), 9 (99799), 10 (96229), 12 (112854) and 14 (96113) were similarly evaluated. […]

αIIbβ3 = target: T2, αIIbβ3 (Homo sapiens, UniProt P05106+P08514); test: Solid phase receptor binding assay (iodinated MMP-2, labeled fusion proteins)
T2 construct: selected purified integrins were separately immobilized in Titertek microtiter wells

competition of labeled GST2-4 binding by unlabeled protein (αvβ3): competed | inhibition of binding of iodinated MMP-2 to αvβ3 (αvβ3; FIG. 8): inhibited the binding of iodinated MMP-2 | binding of 125I-labeled fusion protein to αvβ3 (αvβ3; FIG. 9): bound
B1: CTMMP-2(2-4): GST fusion protein of chicken MMP-2 C-terminal residues 445-637 (protein)
chain: LCKHDIVFDGVAQIRGEIFFFKDRFMWRTVNPRGKPTGPLLVATFWPDLPEKIDAVYESPQDEKAVFFAGNEYWVYTASNLDRGYPKKLTSLGLPPDVQRIDAAFNWGRNKKTYIFSGDRYWKYNEEKKKMELATPKFIADSWNGVPDNLDAVLGLTDSGYTYFFKDQYYLQMEDKSLKIVKIGKISSDWLGC
modifications: left off: a dimerising Fc or GST
reduction in tumor growth rate (CS-1 tumor (β3-negative)): about 50% | inhibition of β3-expressing CS-1 cell adhesion to laminin [1]: but not laminin | inhibition of β3-expressing CS-1 cell adhesion to vitronectin [1]: inhibited | inhibition of bFGF-induced angiogenesis by fusion protein [2]: almost completely inhibited

bound iodinated MMP-2 on immobilized αIIbβ3 (αIIbβ3): approximately 10 CPM | bound iodinated MMP-2 on immobilized αvβ3 (αvβ3): 300 cpm
B2: MMP-2: matrix metalloproteinase-2, intact protein (protein)
chain: APSPIIKFPGDSTPKTDKELAVQYLNKYYGCPKDNCNLFVLKDTLKKMQKFFGLPETGDLDQNTIETMKKPRCGNPDVANYNFFPRKPKWEKNHITYRIIGYTPDLDPETVDDAFARAFKVWSDVTPLRFNRINDGEADIMINFGRWEHGDGYPFDGKDGLLAHAFAPGPGIGGDSHFDDDELWTLGEGQVVRVKYGNADGEYCKFPFWFNGKEYNSCTDAGRNDGFLWCSTTKDFDADGKYGFCPHESLFTMGGNGDGQPCKFPFKFQGQSYDQCTTEGRTDGYRWCGTTEDYDRDKKYGFCPETAMSTVGGNSEGAPCVFPFIFLGNKYDSCTSAGRNDGKLWCASTSSYDDDRKWGFCPDQGYSLFLVAAHEFGHAMGLEHSEDPGALMAPIYTYTKNFRLSQDDIKGIQELYEVSPDVEPGPGPGPGPGPRPTLGPVTPELCKHDIVFDGVAQIRGEIFFFKDRFMWRTVNPRGKPTGPLLVATFWPDLPEKIDAVYESPQDEKAVFFAGNEYWVYTASNLDRGYPKKLTSLGLPPDVQRIDAAFNWGRNKKTYIFSGDRYWKYNEEKKKMELATPKFIADSWNGVPDNLDAVLGLTDSGYTYFFKDQYYLQMEDKSLKIVKIGKISSDWLGC
inhibition of β3-expressing CS-1 cell adhesion to laminin [1]: but not laminin | inhibition of β3-expressing CS-1 cell adhesion to vitronectin [1]: inhibited
